B1: His-SMT3-BRD2 ET domain, short form (BRD2 633-714) (domain or fragment, UniProt P25440 633-714, looked up)
chain: SEEEEESRPMSYDEKRQLSLDINKLPGEKLGRVVHIIQAREPSLRDSNPEEIEIDFETLKPSTLRELERYVLSCLRKKPRKP
notes: also called BRD2S
B2: LANA C-terminal DNA binding domain (residues 1011-1153), wild type (domain or fragment)
chain: HPRYQQPPVPYRQIDDCPAKARPQHIFYRRFLGKDGRRDPKCQWKFAVIFWGNDPYGLKKLSQAFQFGGVKAGPVSCLPHPGPDQSPITYCVYVYCQNKDTSKKVQMARLAWEASHPLAGNLQSSIVKFKKPLPLTQPGENQG
notes: source: E. coli, purified (Ni-NTA, tag cleaved with ULP1, second Ni-NTA, Superdex 75)
B3: LBS1 21-mer FP probe (dsDNA)
DNA 1: AGCGGCCCCATGCCCGGGCGG
DNA 2: CCGCCCGGGCATGGGGCCGCT

What was measured:
[1] = biological target: B2; test: pull-down; His-SMT3-BRD ET domain held on Ni-NTA resin; untagged LANADBD or EBNA1DBD added; 200 mM NaCl, 20 mM HEPES, 5 mM BME, pH 8.0; washed with 10 CV; eluted with 300 mM imidazole; conditions: both partners purified
[2] = biological target: T1, His-SMT3-BRD2 ET domain, long form (BRD2 633-801) (UniProt P25440 633-801); test: as above; conditions: both partners purified
T1 construct: also called BRD2L

[3] = biological target: the molecule itself; test: cross-linking; EGS, without DNA; 200 mM NaCl, 20 mM HEPES pH 7.4, 1 mM DTT, room temperature; samples boiled and run on gels
[4] = biological target: the molecule itself; test: cross-linking; EGS, with a 1.2 molar excess of LBS1 DNA (unlabeled 21-mer); 200 mM NaCl, 20 mM HEPES pH 7.4, 1 mM DTT, room temperature; step: dimers and tetramers to higher oligomers
LANA DBD wild-type = biological target: T2, LANA DBD wild-type (KSHV (HHV-8), UniProt Q9DUN0 825-967); test: fluorescence polarization; cooperative, Hill h > 1; Kd only in figure; FP: 200 mM NaCl, 20 mM HEPES, 1 mM DTT, (protein stock pH 7.4), 1 ug/mL BSA, 0.1 ug/mL poly(dA:dT), 0.001% Tween 20, 1 nM probe, room temperature 30 min; EMSA:; conditions: protein: recombinant; tags: His-SMT3 removed by ULP1; chain copies: 2; label: 5' 6-carboxyfluorescein; blunt
T2 sequence: B2 chain

B1
binding result [1]: binds

B2
binding result [2]: binds
stoichiometry N [3]: 4
stoichiometry N [4]: ~10

B3
binding result (LANA DBD wild-type): binds

Source: PMC3798644, “Molecular Basis for Oligomeric-DNA Binding and Episome Maintenance by KSHV LANA” (PLoS Pathogens, 2013)
